Values belong to the binder of their own block, whether it stands above or below them.
Legend:
APP-TAP-AICD [1] = target: T1, APP-TAP-AICD (human, UniProt P05067 18-695); assay: streptavidin purification of APP-TAP-AICD from brain homogenate; iTRAQ 116/114, transgenic mouse 75 vs control mouse 72; MALDI-TOF/TOF;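 also: relative protein abundance in the transgenic versus control pull-down, limited to proteins with high quality scores and above-average enrichment, without full normalization across the whole measurement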
Excerpt: Shown are all proteins that have high quality scores and are enriched above average in the m75 sample. Purified bait protein is given underlined. Other already known interaction partners of AICD or putatively biologically relevant proteins are given in bold. As full normalization over the entire measurement was not possible through the GPS explorer software suite, this conservative estimate had to be taken for determining the enriched vs. the non-enriched proteins. […] Ranking is in order of abundance ratio.

APP-TAP-AICD [2] = target: T1, APP-TAP-AICD; assay: streptavidin purification of APP-TAP-AICD from brain homogenate; LTQ-FT semiquantitative method, transgenic mouse 75 vs control mouse 72

iTRAQ ratio (APP-TAP-AICD [1]): 3.81
B1: Vacuolar ATP synthase catalytic subunit A; ubiquitous isoform (enzyme)
chain: MDFSKLPKIRDEDKESTFGYVHGVSGPVVTACDMAGAAMYELVRVGHSELVGEIIRLEGDMATIQVYEETSGVSVGDPVLRTGKPLSVELGPGIMGAIFDGIQRPLSDISSQTQSIYIPRGVNVSALSRDIKWEFIPSKNLRVGSHITGGDIYGIVNENSLIKHKIMLPPRNRGSVTYIAPPGNYDASDVVLELEFEGVKEKFSMVQVWPVRQVRPVTEKLPANHPLLTGQRVLDALFPCVQGGTTAIPGAFGCGKTVISQSLSKYSNSDVIIYVGCGERGNEMSEVLRDFPELTMEVDGKVESIMKRTALVANTSNMPVAAREASIYTGITLSEYFRDMGYHVSMMADSTSRWAEALREISGRLAEMPADSGYPAYLGARLASFYERAGRVKCLGNPEREGSVSIVGAVSPPGGDFSDPVTSATLGIVQVFWGLDKKLAQRKHFPSVNWLISYSKYMRALDEYYDKHFTEFVPLRTKAKEILQEEEDLAEIVQLVGKASLAETDKITLEVAKLIKDDFLQQNGYTPYDRFCPFYKTVGMLSNMISFYDMARRAVETTAQSDNKITWSIIREHMGEILYKLSSMKFKDPVKDGEAKIKADYAQLLEDMQNAFRSLED
notes: also called VATA1_MOUSE

probability that this protein is enriched (APP-TAP-AICD [2]): 1
B2: MKIAA0820 protein (Fragment) (other, mouse, UniProt Q8BZ98 1-863, looked up)
chain: MGNREMEELIPLVNRLQDAFSALGQSCLLELPQIAVVGGQSAGKSSVLENFVGRDFLPRGSGIVTRRPLVLQLVTSKAEYAEFLHCKGKKFTDFDEVRHEIEAETDRVTGMNKGISSIPINLRVYSPHVLNLTLIDLPGITKVPVGDQPPDIEYQIRDMIMQFITRENCLILAVTPANTDLANSDALKLAKEVDPQGLRTIGVITKLDLMDEGTDARDVLENKLLPLRRGYVGVVNRSQKDIDGKKDIKAAMLAERKFFLSHPAYRHIADRMGTPHLQKVLNQQLTNHIRDTLPNFRNKLQGQLLSIEHEVEAFKNFKPEDPTRKTKALLQMVQQFAVDFEKRIEGSGDQVDTLELSGGAKINRIFHERFPFEIVKMEFNEKELRREISYAIKNIHGIRTGLFTPDMAFEAIVKKQIVKLKGPSLKSVDLVMQELINTVKKCTKRLANFPRLCEETERIVANHIREREGKTKDQVLLLIDIQVSYINTNHEDFIGFANAQQRSSQVHKKSTIGNQVIRKGWLTVSNIGIMKGGSKGYWFVLTAESLSWYKDDEEKEKKYMLPLDNLKVRDVEKGFMSSKHVFALFNTEQRNVYKDYRFLELACDSQEDVDSWKASLLRAGVYPDKSVGSNKTENDENGQAENFSMDPQLERQVETIRNLVDSYMSIINKCIRDLIPKTIMHLMINNVKDFINSELLAQLYSSEDQNTLMEESAEQAQRRDEMLRMYQALKEALAIIGDINTATVSTPAPPPVDDSWLQHSRRSPPPSPTTQRRLTISAPLPRPTSGRGPAPAIPSPGPHSGAPPVPFRPGPLPPFPNSSDSFGAPPQVPSRPTRAPPSVPSRRPPPSPTRPTIIRPLESSLLD
notes: also called Q80TR2_MOUSE

probability that this protein is enriched (APP-TAP-AICD [2]): 1
B3: 14-3-3 protein theta (14-3-3 protein tau) (other, mouse, UniProt P68254 1-245, looked up)
chain: MEKTELIQKAKLAEQAERYDDMATCMKAVTEQGAELSNEERNLLSVAYKNVVGGRRSAWRVISSIEQKTDTSDKKLQLIKDYREKVESELRSICTTVLELLDKYLIANATNPESKVFYLKMKGDYFRYLAEVACGDDRKQTIENSQGAYQEAFDISKKEMQPTHPIRLGLALNFSVFYYEILNNPELACTLAKTAFDEAIAELDTLNEDSYKDSTLIMQLLRDNLTLWTSDSAGEECDAAEGAEN
notes: also called 14-3-3 θ

probability that this protein is enriched (APP-TAP-AICD [2]): 1
B4: Superoxide dismutase [Cu-Zn] (enzyme)
chain: not shown

probability that this protein is enriched (APP-TAP-AICD [2]): 1
B5: Peroxiredoxin-5, mitochondrial precursor (Prx-V) (enzyme, mouse, UniProt P99029 49-210, looked up)
chain: MAPIKVGDAIPSVEVFEGEPGKKVNLAELFKGKKGVLFGVPGAFTPGCSKTHLPGFVEQAGALKAKGAQVVACLSVNDVFVIEEWGRAHQAEGKVRLLADPTGAFGKATDLLLDDSLVSLFGNRRLKRFSMVIDNGIVKALNVEPDGTGLTCSLAPNILSQL
notes: also called PRDX5_MOUSE

probability that this protein is enriched (APP-TAP-AICD [2]): 1
B6: Elongation factor 1-alpha 2 (EF-1-alpha-2) (Elongation factor 1 A-2) (eEF1A-2) (Statin S1) (other, mouse, UniProt P62631 2-463, looked up)
chain: GKEKTHINIVVIGHVDSGKSTTTGHLIYKCGGIDKRTIEKFEKEAAEMGKGSFKYAWVLDKLKAERERGITIDISLWKFETTKYYITIIDAPGHRDFIKNMITGTSQADCAVLIVAAGVGEFEAGISKNGQTREHALLAYTLGVKQLIVGVNKMDSTEPAYSEKRYDEIVKEVSAYIKKIGYNPATVPFVPISGWHGDNMLEPSPNMPWFKGWKVERKEGNASGVSLLEALDTILPPTRPTDKPLRLPLQDVYKIGGIGTVPVGRVETGILRPGMVVTFAPVNITTEVKSVEMHHEALSEALPGDNVGFNVKNVSVKDIRRGNVCGDSKADPPQEAAQFTSQVIILNHPGQISAGYSPVIDCHTAHIACKFAELKEKIDRRSGKKLEDNPKSLKSGDAAIVEMVPGKPMCVESFSQYPPLGRFAVRDMRQTVAVGVIKNVEKKSGGAGKVTKSAQKAQKAGK
notes: also called EF1A2_MOUSE

iTRAQ ratio (APP-TAP-AICD [1]): 3.22
B7: Tubulin beta-4 chain (other, mouse, UniProt Q9D6F9 1-444, looked up)
chain: MREIVHLQAGQCGNQIGAKFWEVISDEHGIDPTGTYHGDSDLQLERINVYYNEATGGNYVPRAVLVDLEPGTMDSVRSGPFGQIFRPDNFVFGQSGAGNNWAKGHYTEGAELVDAVLDVVRKEAESCDCLQGFQLTHSLGGGTGSGMGTLLISKIREEFPDRIMNTFSVVPSPKVSDTVVEPYNATLSVHQLVENTDETYCIDNEALYDICFRTLKLTTPTYGDLNHLVSATMSGVTTCLRFPGQLNADLRKLAVNMVPFPRLHFFMPGFAPLTSRGSQQYRALTVPELTQQMFDAKNMMAACDPRHGRYLTVAAVFRGRMSMKEVDEQMLSVQSKNSSYFVEWIPNNVKTAVCDIPPRGLKMAATFIGNSTAIQELFKRISEQFTAMFRRKAFLHWYTGEGMDEMEFTEAESNMNDLVSEYQQYQDATAEEGEFEEEAEEEVA
notes: also called TBB4_MOUSE

iTRAQ ratio (APP-TAP-AICD [1]): 3.51
B8: Aspartate aminotransferase; mitochondrial precursor (Transaminase A) (enzyme, mouse, UniProt P05202 30-430, looked up)
chain: SSWWTHVEMGPPDPILGVTEAFKRDTNSKKMNLGVGAYRDDNGKPYVLPSVRKAEAQIAAKNLDKEYLPIGGLAEFCKASAELALGENNEVLKSGRFVTVQTISGTGALRVGASFLQRFFKFSRDVFLPKPSWGNHTPIFRDAGMQLQGYRYYDPKTCGFDFSGALEDISKIPEQSVLLLHACAHNPTGVDPRPEQWKEIASVVKKKNLFAFFDMAYQGFASGDGDKDAWAVRHFIEQGINVCLCQSYAKNMGLYGERVGAFTVVCKDAEEAKRVESQLKILIRPLYSNPPLNGARIAATILTSPDLRKQWLQEVKGMADRIISMRTQLVSNLKKEGSSHNWQHITDQIGMFCFTGLKPEQVERLTKEFSVYMTKDGRISVAGVTSGNVGYLAHAIHQVTK

iTRAQ ratio (APP-TAP-AICD [1]): 3.76
B9: Glutamine synthetase (Glutamate-ammonia ligase) (enzyme, mouse, UniProt P15105 2-373, looked up)
chain: ATSASSHLNKGIKQMYMSLPQGEKVQAMYIWVDGTGEGLRCKTRTLDCEPKCVEELPEWNFDGSSTFQSEGSNSDMYLHPVAMFRDPFRKDPNKLVLCEVFKYNRKPAETNLRHICKRIMDMVSNQHPWFGMEQEYTLMGTDGHPFGWPSNGFPGPQGPYYCGVGADKAYGRDIVEAHYRACLYAGVKITGTNAEVMPAQWEFQIGPCEGIRMGDHLWIARFILHRVCEDFGVIATFDPKPIPGNWNGAGCHTNFSTKAMREENGLKCIEEAIDKLSKRHQYHIRAYDPKGGLDNARRLTGFHETSNINDFSAGVANRGASIRIPRTVGQEKKGYFEDRRPSANCDPYAVTEAIVRTCLLNETGDEPFQYKN

iTRAQ ratio (APP-TAP-AICD [1]): 3.39
B10: ATP synthase alpha chain; mitochondrial precursor (enzyme, mouse, UniProt Q03265 44-553, looked up)
chain: QKTGTAEMSSILEERILGADTSVDLEETGRVLSIGDGIARVHGLRNVQAEEMVEFSSGLKGMSLNLEPDNVGVVVFGNDKLIKEGDVVKRTGAIVDVPVGEELLGRVVDALGNAIDGKGPIGSKTRRRVGLKAPGIIPRISVREPMQTGIKAVDSLVPIGRGQRELIIGDRQTGKTSIAIDTIINQKRFNDGTDEKKKLYCIYVAIGQKRSTVAQLVKRLTDADAMKYTIVVSATASDAAPLQYLAPYSGCSMGEYFRDNGKHALIIYDDLSKQAVAYRQMSLLLRRPPGREAYPGDVFYLHSRLLERAAKMNDSFGGGSLTALPVIETQAGDVSAYIPTNVISITDGQIFLETELFYKGIRPAINVGLSVSRVGSAAQTRAMKQVAGTMKLELAQYREVAAFAQFGSDLDAATQQLLSRGVRLTELLKQGQYSPMAIEEQVAVIYAGVRGYLDKLEPSKITKFENAFLSHVISQHQSLLGNIRSDGKISEQSDAKLKEIVTNFLAGFEP

probability that this protein is enriched (APP-TAP-AICD [2]): 1
B11: 14-3-3 protein eta (other, mouse, UniProt P68510 2-246, looked up)
chain: GDREQLLQRARLAEQAERYDDMASAMKAVTELNEPLSNEDRNLLSVAYKNVVGARRSSWRVISSIEQKTMADGNEKKLEKVKAYREKIEKELETVCNDVLALLDKFLIKNCNDFQYESKVFYLKMKGDYYRYLAEVASGEKKNSVVEASEAAYKEAFEISKEHMQPTHPIRLGLALNFSVFYYEIQNAPEQACLLAKQAFDDAIAELDTLNEDSYKDSTLIMQLLRDNLTLWTSDQQDEEAGEGN
notes: also called 14-3-3 η

probability that this protein is enriched (APP-TAP-AICD [2]): 1
B12: Excitatory amino acid transporter 1 (Sodium-dependent glutamate/aspartate transporter) (GLAST) (other, mouse, UniProt P56564 1-543, looked up)
chain: MTKSNGEEPRMGGRMERLQQGVRKRTLLAKKKVQSLTKEDVKSYLFRNAFVLLTVTAVIVGTILGFALRPYKMSYREVKYFSFPGELLMRMLQMLVLPLIISSLVTGMAALDSKASGKMGMRAVVYYMTTTIIAVVIGIIIVIIIHPGKGTKENMYREGKIVQVTAADAFLDLIRNMFPPNLVEACFKQFKTSYEKRSFKVPIQSNETLLGAVINNVSEAMETLTRIREEMVPVPGSVNGVNALGLVVFSMCFGFVIGNMKEQGQALREFFDSLNEAIMRLVAVIMWYAPLGILFLIAGKIVEMEDMGVIGGQLAMYTVTVIVGLLIHAVIVLPLLYFLVTRKNPWVFIGGLLQALITALGTSSSSATLPITFKCLEENNGVDKRITRFVLPVGATINMDGTALYEALAAIFIAQVNNFDLNFGQIITISITATAASIGAAGIPQAGLVTMVIVLTSVGLPTDDITLIIAVDWFLDRLRTTTNVLGDSLGAGIVEHLSRHELKNRDVEMGNSVIEENEMKKPYQLIAQDNEPEKPVADSETKM
notes: also called EAA1_MOUSE

iTRAQ ratio (APP-TAP-AICD [1]): 3.77
B13: Fructose-bisphosphate aldolase C (Brain-type aldolase) (Aldolase 3) (enzyme, mouse, UniProt P05063 2-363, looked up)
chain: PHSYPALSAEQKKELSDIALRIVTPGKGILAADESVGSMAKRLSQIGVENTEENRRLYRQVLFSADDRVKKCIGGVIFFHETLYQKDDNGVPFVRTIQDKGILVGIKVDKGVVPLAGTDGETTTQGLDGLLERCAQYKKDGADFAKWRCVLKISDRTPSALAILENANVLARYASICQQNGIVPIVEPEILPDGDHDLKRCQYVTEKVLAAVYKALSDHHVYLEGTLLKPNMVTPGHACPIKYSPEEIAMATVTALRRTVPPAVPGVTFLSGGQSEEEASLNLNAINRCPLPRPWALTFSYGRALQASALNAWRGQRDNAGAATEEFIKRAEMNGLAAQGRYEGSGDGGAAAQSLYIANHAY

From patent publication US20100169988A1 (published 2010)
